This is an account of results in patent US20200048348A1 (TENEOBIO, published 2020).

The labels stand for the following.
B1: SEQ ID NO 10 (antibody, IgG1, V domains shown)
VH: EVQLVESGGGLVQPGRSLRLSCAASGFTFDNYAMHWVRQAPGKGLEWVSGISWNSGSIGYADSVKGRFTISRDNAKNSLYLQMNSLRAEDTALYYCAKDSRGYGDYSRGGAYWGQGTLVTVSS
VL: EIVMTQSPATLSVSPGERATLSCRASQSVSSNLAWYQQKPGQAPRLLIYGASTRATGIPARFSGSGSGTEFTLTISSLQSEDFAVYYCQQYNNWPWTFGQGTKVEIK
notes: also called FlicAb
B2: SEQ ID NO 7 (antibody, IgG1, V domains shown)
VH: B1 VH with D30N, A88G
VL: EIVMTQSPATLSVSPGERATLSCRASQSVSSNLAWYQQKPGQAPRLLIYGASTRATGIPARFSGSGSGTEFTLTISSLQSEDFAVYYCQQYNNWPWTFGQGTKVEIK
notes: also called FlicAb
B3: SEQ ID NO 1 (antibody, IgG1, V domains shown)
VH: B1 VH with N31D, S107R, R108L
VL: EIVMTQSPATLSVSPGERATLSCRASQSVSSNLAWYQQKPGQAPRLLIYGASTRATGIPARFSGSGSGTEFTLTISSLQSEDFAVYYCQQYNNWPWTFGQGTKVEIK
notes: also called FlicAb
B4: SEQ ID NO 6 (antibody, IgG1, V domains shown)
VH: B1 VH with D30A, G59D
VL: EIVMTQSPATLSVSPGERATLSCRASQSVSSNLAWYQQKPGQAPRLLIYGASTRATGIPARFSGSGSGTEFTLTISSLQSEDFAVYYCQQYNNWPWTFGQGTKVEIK
notes: also called FlicAb
B5: SEQ ID NO 13 (antibody, IgG1, V domains shown)
VH: B1 VH with D30H, R108L
VL: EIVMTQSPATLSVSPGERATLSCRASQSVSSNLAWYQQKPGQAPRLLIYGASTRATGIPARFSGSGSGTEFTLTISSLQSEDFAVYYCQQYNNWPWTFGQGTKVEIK
notes: also called FlicAb

Changes are numbered by the printed parent chain.

human CD3, sequence (P07766 23-207, one chain of several): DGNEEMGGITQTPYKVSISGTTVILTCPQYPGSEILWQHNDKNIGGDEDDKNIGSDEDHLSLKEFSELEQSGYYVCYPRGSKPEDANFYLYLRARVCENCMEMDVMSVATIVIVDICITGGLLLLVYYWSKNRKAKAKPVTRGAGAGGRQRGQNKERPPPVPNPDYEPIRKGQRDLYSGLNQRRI

This assay addresses human CD3 (human, UniProt P07766 23-207; P04234 22-171). Kind of assay: flow cytometry, parental monospecific anti-CD3 on Jurkat cells; antibody concentration not given. On the technique in general: Flow cytometry measures light scatter and fluorescence of single cells or particles in a stream.
For B1, the “Jurkat cell bind (MFI)” value was 30.5 MFI.

As to B2, the “Jurkat cell bind (MFI)” value was found to be 32.4 MFI.

For B3, the “Jurkat cell bind (MFI)” value amounted to 6.1 MFI.

In the case of B4, the “Jurkat cell bind (MFI)” value is 32.7 MFI.

As for B5, the “Jurkat cell bind (MFI)” value stood at 21.4 MFI.
